Data on 1 substance can be found in publication PMC3070541.

This test concerns the target 2A3-D NKT TCR βL95A, on 5KC hybridoma (mouse). Put plainly: flow cytometry on cells. Background: A flow cytometer gives signals particle by particle.

As to “mouse CD1d tetramer loaded with α-galactosylceramide (αGC) (from UniProt P11609 22-336; P01887 21-119) (complex)”, the reduction of tetramer binding against the wild type stood at 10%.
